Measurements as given in paper PMC6336718.

What was measured:
[1] = molecular target: Bacillus anthracis zinc uptake regulator protein (BaZur) (Bacillus anthracis (Sterne 34F2)); assay: native gel or EMSA
[2] = molecular target: Bacillus anthracis zinc uptake regulator protein (BaZur) (Bacillus anthracis (Sterne 34F2)); assay: SEC; […] (50 mM Tris HCl pH 8.0, 150 mM NaCl, 5% glycerol), […]

Bacillus anthracis zinc uptake regulator protein (BaZur) (natural protein)
stoichiometry N [1]: 2 | stoichiometry N [2]: 2
